According to paper PMC1356529:

Columns and labels:
NCp9 (HIV-1) [1] = target: NCp9 (HIV-1) (UniProt P12493); assay: single-molecule DNA stretching
NCp7 (HIV-1) [2] = target: NCp7 (HIV-1) (UniProt P12493); assay: single-molecule DNA stretching
NCp15 (HIV-1) [3] = assay: single-molecule DNA stretching
NCp9 (HIV-1) [4] = target: NCp9 (HIV-1) (UniProt P12493); assay: Trp fluorescence quenching titration
NCp7 (HIV-1) [5] = target: NCp7 (HIV-1) (UniProt P12493); assay: Trp fluorescence quenching titration
NCp9 (HIV-1) [6] = target: NCp9 (HIV-1) (UniProt P12493); assay: ethenoA fluorescence enhancement titration; conditions: 1,N6-ethenoadenosine homopolymer (RNA)
NCp7 (HIV-1) [7] = target: NCp7 (HIV-1) (UniProt P12493); assay: ethenoA fluorescence enhancement titration; conditions: 1,N6-ethenoadenosine homopolymer (RNA)
NCp15 (HIV-1) [8] = assay: ethenoA fluorescence enhancement titration; conditions: 1,N6-ethenoadenosine homopolymer (RNA)
NCp15 (HIV-1) [9] = assay: Trp fluorescence quenching titration

lambda-DNA was tested, and the Ka (NCp9 (HIV-1) [1]) was 1.4e+08 M⁻¹, the Ka (NCp7 (HIV-1) [2]) was 1.22e+08 M⁻¹ and the Ka (NCp15 (HIV-1) [3]) was 1.04e+08 M⁻¹.

With 5'LTR/U3 single strand the Ka (NCp9 (HIV-1) [4]) was 3.9e+08 M⁻¹ and the Ka (NCp7 (HIV-1) [5]) was 2.2e+08 M⁻¹.

For 3'LTR/U5 single strand, the Ka (NCp9 (HIV-1) [4]) was 6.2e+07 M⁻¹ and the Ka (NCp7 (HIV-1) [5]) was 4.3e+07 M⁻¹.

In the case of poly(etheno-A), the Ka (NCp9 (HIV-1) [6]) is reported as 3.8e+09 M⁻¹, the Ka (NCp7 (HIV-1) [7]) is reported as 1.4e+09 M⁻¹ and the Ka (NCp15 (HIV-1) [8]) is reported as 1.7e+09 M⁻¹.

Work on poly(dT) yielded a Ka (NCp9 (HIV-1) [4]) of 1.1e+08 M⁻¹, a Ka (NCp7 (HIV-1) [5]) of 9.3e+07 M⁻¹ and a Ka (NCp15 (HIV-1) [9]) of 1.4e+09 M⁻¹.
